Assay [1] addresses MBP–APO1 mXT (human) (UniProt P41238). The assay is described as follows: SEC-MALS; MBP–APO1 fusions with Leu, Gln or Ala at position 173; SEC and MALS. Background: Size exclusion chromatography separates by hydrodynamic size, large species first.
The target is the same in assay [2]. The assay is described as follows: SEC; MBP–APO1 fusion proteins; SEC in 20 mM HEPES pH 7.5, 500 mM NaCl, 0.5 mM TCEP.
In assay [3] the target is MBP–APO1 mXT-173Q (human) (UniProt P41238). The assay is described as follows: SEC-MALS; MBP–APO1 fusions with Leu, Gln or Ala at position 173; SEC and MALS.
Assay [4] addresses MBP–APO1 mXT-173L (human) (UniProt P41238). The assay is described as above.
The target of a further assay is MBP–APO1 mSOL (human) (UniProt P41238). The assay is described as follows: SEC; MBP–APO1 fusion proteins; SEC in 20 mM HEPES pH 7.5, 500 mM NaCl, 0.5 mM TCEP.

Here are results for 4 substances from paper PMC7556403.

What is called stoichiometry N is the number of molecules, sites or subunits per partner or assembly.

For “MBP–APO1 mXT (from UniProt P41238 15-236) (enzyme)”, the stoichiometry N in the assay with MBP–APO1 mXT (human) [1] and in the assay with MBP–APO1 mXT (human) [2] was 2 each time.
In assay [3], “MBP–APO1 mXT-173Q (from UniProt P41238 15-236) (enzyme)” returned a percent in the dimer peak of 1 to 2%.
Take “MBP–APO1 mXT-173L (from UniProt P41238 15-236) (enzyme)”: the stoichiometry N in assay [4] amounted to 2.
As to “MBP–APO1 mSOL (from UniProt P41238 1-236) (enzyme)”, in the assay with MBP–APO1 mSOL (human), the stoichiometry N was 2.
